biological target: T1, MUC1 (Mucin-1) as expressed by human cancer cell lines (human, UniProt P15941 24-1255); assay: flow cytometry, Capan-2 cells stained with transient-expression culture solution; positive rate against the negative control
T1 construct: whole, on cells; Endogenous antigen on the cell surface (flow cytometry) or in cell lysates (immunoprecipitation, western blot); also called MUC1 antigen; antigen recognized by the MP1 monoclonal antibody
T1 sequence (P15941 24-1255): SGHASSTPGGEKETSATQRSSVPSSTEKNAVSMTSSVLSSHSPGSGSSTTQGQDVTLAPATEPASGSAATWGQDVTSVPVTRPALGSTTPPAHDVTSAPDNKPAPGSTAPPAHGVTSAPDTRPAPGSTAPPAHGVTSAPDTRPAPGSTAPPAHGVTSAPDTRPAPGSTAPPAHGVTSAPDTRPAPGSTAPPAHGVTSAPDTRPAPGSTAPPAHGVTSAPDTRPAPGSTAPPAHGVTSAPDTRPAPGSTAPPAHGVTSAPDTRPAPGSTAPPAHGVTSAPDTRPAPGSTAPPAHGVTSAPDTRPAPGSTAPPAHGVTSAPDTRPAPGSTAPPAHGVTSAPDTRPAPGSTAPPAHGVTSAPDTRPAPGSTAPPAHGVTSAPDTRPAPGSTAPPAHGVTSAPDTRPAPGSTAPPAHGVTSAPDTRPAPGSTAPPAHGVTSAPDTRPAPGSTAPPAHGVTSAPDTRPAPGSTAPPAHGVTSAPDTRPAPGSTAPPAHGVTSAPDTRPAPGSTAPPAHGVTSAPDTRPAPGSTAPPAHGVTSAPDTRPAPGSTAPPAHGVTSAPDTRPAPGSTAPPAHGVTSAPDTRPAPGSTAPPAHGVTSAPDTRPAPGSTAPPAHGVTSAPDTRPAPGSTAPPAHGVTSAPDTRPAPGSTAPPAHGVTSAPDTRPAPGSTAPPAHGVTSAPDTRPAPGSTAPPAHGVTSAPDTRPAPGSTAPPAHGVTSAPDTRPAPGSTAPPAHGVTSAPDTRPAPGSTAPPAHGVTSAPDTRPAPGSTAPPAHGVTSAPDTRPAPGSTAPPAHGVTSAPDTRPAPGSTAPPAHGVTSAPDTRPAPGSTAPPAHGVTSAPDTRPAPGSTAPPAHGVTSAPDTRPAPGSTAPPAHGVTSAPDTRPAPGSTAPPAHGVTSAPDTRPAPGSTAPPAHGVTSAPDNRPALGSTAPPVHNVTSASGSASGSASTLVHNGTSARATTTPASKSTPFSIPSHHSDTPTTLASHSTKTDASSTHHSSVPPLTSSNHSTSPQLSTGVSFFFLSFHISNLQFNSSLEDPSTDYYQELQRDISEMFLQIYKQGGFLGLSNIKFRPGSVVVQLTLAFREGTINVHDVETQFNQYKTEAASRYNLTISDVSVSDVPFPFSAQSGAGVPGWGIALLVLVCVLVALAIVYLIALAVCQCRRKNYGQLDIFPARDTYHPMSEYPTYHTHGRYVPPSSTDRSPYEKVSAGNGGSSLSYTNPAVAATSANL

| Binder | Capan-2 cell surface binding (%) |
| --- | --- |
| humanized MP1 antibody VH1/VL4 (antibody, V domains shown, tested as ExpiCHO-S culture solution) VH: EVKVVESGGGLVQPGRSLRLSCTASGITFSDYWMNWVRQAPGKGLEWVGQIRNKPYNYETYYSQSVKGRFTISRDDSKSIAYLQMSSLKTEDTAVYYCTWAMITSDGYAMDYWGQGTLVTVSS VL: EIVMTQSPGTLSLSPGERATLSCRSSQSLLLSSNQKNYLAWYQQKPGQAPRLLIYWASTRESGIPDRFSGSGSGTDFTLTISRVEPEDFAVYYCQQCFSYPLTFGQGTKLEIK | 15.8% |
| humanized MP1 antibody VH4/VL8 (antibody, V domains shown, tested as ExpiCHO-S culture solution) VH: EVKVVESGGGLVQPGGSLRLSCAASGITFSDYWMNWVRQAPGKGLEWVAQIRNKPYNYETYYSNSVKGRFTISRDDAKSSVYLQMSSLRAEDTAVYYCTWAMITSDGYAMDYWGQGTLVTVSS VL: DIVMTQSPLSLPVTPGEPASISCRSSQSLLLSSNQKNYLAWYLQKPGQSPQLLIYWGSTRESGVPDRFSGSGSGTDFTLKISRVEAEDVGVYYCQQSFSYPLTFGQGTKLEIK | 11.4% |
| humanized MP1 antibody VH4/VL7 (antibody, V domains shown, tested as ExpiCHO-S culture solution) VH: EVKVVESGGGLVQPGGSLRLSCAASGITFSDYWMNWVRQAPGKGLEWVAQIRNKPYNYETYYSNSVKGRFTISRDDAKSSVYLQMSSLRAEDTAVYYCTWAMITSDGYAMDYWGQGTLVTVSS VL: DIVMTQSPLSLPVTPGEPASISCRSSQSLLLSSNQKNYLAWYLQKPGQSPQLLIYWASTRESGVPDRFSGSGSGTDFTLKISRVEAEDVGVYYCQQCFSYPLTFGQGTKLEIK | 11% |
| humanized MP1 antibody VH8/VL2 (antibody, V domains shown, tested as ExpiCHO-S culture solution) VH: QVQLVESGGGVVQPGRSLRLSCAASGITFSSYWMNWVRQAPGKGLEWVAQIRNKPYNYEKYYAQSVKGRFTISRDDSKSTLYLQMSSLRAEDTAVYYCAWAMITSDGYAMDYWGQGTLVTVSS VL: DIVMTQSPDSLAVSLGERATISCKSSQSVLLSSNQKNYLAWYQQKPGQPPKLLIYWASTRESGVPDRFSGSGSGTEFTLTISSLQAEDVAVYYCQQSFSYPLTFGQGTKLEIK | 11.4% |
| humanized MP1 antibody VH1/VL2 (antibody, V domains shown, tested as ExpiCHO-S culture solution) VH: EVKVVESGGGLVQPGRSLRLSCTASGITFSDYWMNWVRQAPGKGLEWVGQIRNKPYNYETYYSQSVKGRFTISRDDSKSIAYLQMSSLKTEDTAVYYCTWAMITSDGYAMDYWGQGTLVTVSS VL: DIVMTQSPDSLAVSLGERATISCKSSQSVLLSSNQKNYLAWYQQKPGQPPKLLIYWASTRESGVPDRFSGSGSGTEFTLTISSLQAEDVAVYYCQQSFSYPLTFGQGTKLEIK | 13.5% |
| humanized MP1 antibody VH8/VL4 (antibody, V domains shown, tested as ExpiCHO-S culture solution) VH: QVQLVESGGGVVQPGRSLRLSCAASGITFSSYWMNWVRQAPGKGLEWVAQIRNKPYNYEKYYAQSVKGRFTISRDDSKSTLYLQMSSLRAEDTAVYYCAWAMITSDGYAMDYWGQGTLVTVSS VL: EIVMTQSPGTLSLSPGERATLSCRSSQSLLLSSNQKNYLAWYQQKPGQAPRLLIYWASTRESGIPDRFSGSGSGTDFTLTISRVEPEDFAVYYCQQCFSYPLTFGQGTKLEIK | 15.6% |
| humanized MP1 antibody VH1/VL1 (antibody, V domains shown, tested as ExpiCHO-S culture solution) VH: EVKVVESGGGLVQPGRSLRLSCTASGITFSDYWMNWVRQAPGKGLEWVGQIRNKPYNYETYYSQSVKGRFTISRDDSKSIAYLQMSSLKTEDTAVYYCTWAMITSDGYAMDYWGQGTLVTVSS VL: DIVMTQSPDSLAVSLGERATISCKSSQSLLLSSNQKNYLAWYQQKPGQPPKLLIYWASTRESGVPDRFSGSGSGTEFTLTISSVQAEDVAVYYCQQCFSYPLTFGQGTKLEIK | 7.95% |
| humanized MP1 antibody VH4/VL2 (antibody, V domains shown, tested as ExpiCHO-S culture solution) VH: EVKVVESGGGLVQPGGSLRLSCAASGITFSDYWMNWVRQAPGKGLEWVAQIRNKPYNYETYYSNSVKGRFTISRDDAKSSVYLQMSSLRAEDTAVYYCTWAMITSDGYAMDYWGQGTLVTVSS VL: DIVMTQSPDSLAVSLGERATISCKSSQSVLLSSNQKNYLAWYQQKPGQPPKLLIYWASTRESGVPDRFSGSGSGTEFTLTISSLQAEDVAVYYCQQSFSYPLTFGQGTKLEIK | 7.2% |
| humanized MP1 antibody VH7/VL5 (antibody, V domains shown, tested as ExpiCHO-S culture solution) VH: QVKVVESGGGVVQPGRSLRLSCAASGITFSDYWMNWVRQAPGKGLEWVAQIRNKPYNYETYYSNSVKGRFTISRDDSKSTVYLQMSSLRAEDTAVYYCTWAMITSDGYAMDYWGQGTLVTVSS VL: EIVLTQSPGTLSLSPGERATLSCRASQSVLLSSNQKNYLAWYQQKPGQAPRLLIYWASSRETGIPDRFSGSGSGTDFTLTISRLEPEDFAVYYCQQSFSYPLTFGQGTKLEIK | 10.2% |
| humanized MP1 antibody VH8/VL8 (antibody, V domains shown, tested as ExpiCHO-S culture solution) VH: QVQLVESGGGVVQPGRSLRLSCAASGITFSSYWMNWVRQAPGKGLEWVAQIRNKPYNYEKYYAQSVKGRFTISRDDSKSTLYLQMSSLRAEDTAVYYCAWAMITSDGYAMDYWGQGTLVTVSS VL: DIVMTQSPLSLPVTPGEPASISCRSSQSLLLSSNQKNYLAWYLQKPGQSPQLLIYWGSTRESGVPDRFSGSGSGTDFTLKISRVEAEDVGVYYCQQSFSYPLTFGQGTKLEIK | 7.16% |
| humanized MP1 antibody VH8/VL3 (antibody, V domains shown, tested as ExpiCHO-S culture solution) VH: QVQLVESGGGVVQPGRSLRLSCAASGITFSSYWMNWVRQAPGKGLEWVAQIRNKPYNYEKYYAQSVKGRFTISRDDSKSTLYLQMSSLRAEDTAVYYCAWAMITSDGYAMDYWGQGTLVTVSS VL: not shown | 28.5% |
| humanized MP1 antibody VH7/VL3 (antibody, V domains shown, tested as ExpiCHO-S culture solution) VH: QVKVVESGGGVVQPGRSLRLSCAASGITFSDYWMNWVRQAPGKGLEWVAQIRNKPYNYETYYSNSVKGRFTISRDDSKSTVYLQMSSLRAEDTAVYYCTWAMITSDGYAMDYWGQGTLVTVSS VL: not shown | 11.5% |
| humanized MP1 antibody VH9/VL2 (antibody, V domains shown, tested as ExpiCHO-S culture solution) VH: QVQLVESGGGVVQPGRSLRLSCAASGFTFSSYWMHWVRQAPGKGLEWVAVIRYKPYGSEKYYAQSVKGRFTISRDDSKSTLYLQMSSLRAEDTAVYYCAWAMITSDGYAFDYWGQGTLVTVSS VL: DIVMTQSPDSLAVSLGERATISCKSSQSVLLSSNQKNYLAWYQQKPGQPPKLLIYWASTRESGVPDRFSGSGSGTEFTLTISSLQAEDVAVYYCQQSFSYPLTFGQGTKLEIK | 7.04% |
| humanized MP1 antibody VH1/VL5 (antibody, V domains shown, tested as ExpiCHO-S culture solution) VH: EVKVVESGGGLVQPGRSLRLSCTASGITFSDYWMNWVRQAPGKGLEWVGQIRNKPYNYETYYSQSVKGRFTISRDDSKSIAYLQMSSLKTEDTAVYYCTWAMITSDGYAMDYWGQGTLVTVSS VL: EIVLTQSPGTLSLSPGERATLSCRASQSVLLSSNQKNYLAWYQQKPGQAPRLLIYWASSRETGIPDRFSGSGSGTDFTLTISRLEPEDFAVYYCQQSFSYPLTFGQGTKLEIK | 27.2% |
| humanized MP1 antibody VH8/VL6 (antibody, V domains shown, tested as ExpiCHO-S culture solution) VH: QVQLVESGGGVVQPGRSLRLSCAASGITFSSYWMNWVRQAPGKGLEWVAQIRNKPYNYEKYYAQSVKGRFTISRDDSKSTLYLQMSSLRAEDTAVYYCAWAMITSDGYAMDYWGQGTLVTVSS VL: EIVLTQSPGTLSLSPGERATLSCRASQSVLLSSSQKNYLAWYQQKPGQAPRLLIYWASSRATGIPDRFSGSGSGTDFTLTISRLEPEDFAVYYCQQSFSSPYTFGQGTKLEIK | 9.97% |
| humanized MP1 antibody VH8/VL1 (antibody, V domains shown, tested as ExpiCHO-S culture solution) VH: QVQLVESGGGVVQPGRSLRLSCAASGITFSSYWMNWVRQAPGKGLEWVAQIRNKPYNYEKYYAQSVKGRFTISRDDSKSTLYLQMSSLRAEDTAVYYCAWAMITSDGYAMDYWGQGTLVTVSS VL: DIVMTQSPDSLAVSLGERATISCKSSQSLLLSSNQKNYLAWYQQKPGQPPKLLIYWASTRESGVPDRFSGSGSGTEFTLTISSVQAEDVAVYYCQQCFSYPLTFGQGTKLEIK | 6.65% |
| humanized MP1 antibody VH8/VL5 (antibody, V domains shown, tested as ExpiCHO-S culture solution) VH: QVQLVESGGGVVQPGRSLRLSCAASGITFSSYWMNWVRQAPGKGLEWVAQIRNKPYNYEKYYAQSVKGRFTISRDDSKSTLYLQMSSLRAEDTAVYYCAWAMITSDGYAMDYWGQGTLVTVSS VL: EIVLTQSPGTLSLSPGERATLSCRASQSVLLSSNQKNYLAWYQQKPGQAPRLLIYWASSRETGIPDRFSGSGSGTDFTLTISRLEPEDFAVYYCQQSFSYPLTFGQGTKLEIK | 6.61% |
| humanized MP1 antibody VH7/VL4 (antibody, V domains shown, tested as ExpiCHO-S culture solution) VH: QVKVVESGGGVVQPGRSLRLSCAASGITFSDYWMNWVRQAPGKGLEWVAQIRNKPYNYETYYSNSVKGRFTISRDDSKSTVYLQMSSLRAEDTAVYYCTWAMITSDGYAMDYWGQGTLVTVSS VL: EIVMTQSPGTLSLSPGERATLSCRSSQSLLLSSNQKNYLAWYQQKPGQAPRLLIYWASTRESGIPDRFSGSGSGTDFTLTISRVEPEDFAVYYCQQCFSYPLTFGQGTKLEIK | 12.7% |
| humanized MP1 antibody VH4/VL5 (antibody, V domains shown, tested as ExpiCHO-S culture solution) VH: EVKVVESGGGLVQPGGSLRLSCAASGITFSDYWMNWVRQAPGKGLEWVAQIRNKPYNYETYYSNSVKGRFTISRDDAKSSVYLQMSSLRAEDTAVYYCTWAMITSDGYAMDYWGQGTLVTVSS VL: EIVLTQSPGTLSLSPGERATLSCRASQSVLLSSNQKNYLAWYQQKPGQAPRLLIYWASSRETGIPDRFSGSGSGTDFTLTISRLEPEDFAVYYCQQSFSYPLTFGQGTKLEIK | 16.9% |
| humanized MP1 antibody VH4/VL4 (antibody, V domains shown, tested as ExpiCHO-S culture solution) VH: EVKVVESGGGLVQPGGSLRLSCAASGITFSDYWMNWVRQAPGKGLEWVAQIRNKPYNYETYYSNSVKGRFTISRDDAKSSVYLQMSSLRAEDTAVYYCTWAMITSDGYAMDYWGQGTLVTVSS VL: EIVMTQSPGTLSLSPGERATLSCRSSQSLLLSSNQKNYLAWYQQKPGQAPRLLIYWASTRESGIPDRFSGSGSGTDFTLTISRVEPEDFAVYYCQQCFSYPLTFGQGTKLEIK | 18.1% |
